Reference: patent US20070282017A1 (Harvard, published 2007)

Key:
[1] = target: Endogenous Ser65-phosphorylated BIMEL in cerebellar granule neurons (UniProt O88498)
[2] = target: T1, Recombinant GST-Pin1 (UniProt Q13526 1-163); assay: GST-Pin1 pulldown from 293T lysates, anti-FLAG immunoblot
T1 construct: Bait in GST pulldown assays; not shown: glutathione S-transferase (GST) fusion partner
T1 sequence (Q13526 whole entry, the tested form may be a part): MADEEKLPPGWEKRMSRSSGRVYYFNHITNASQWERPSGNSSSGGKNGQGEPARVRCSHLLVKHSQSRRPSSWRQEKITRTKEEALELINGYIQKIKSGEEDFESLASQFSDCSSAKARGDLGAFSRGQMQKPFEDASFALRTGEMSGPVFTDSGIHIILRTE

Endogenous Ser65-phosphorylated BIMEL in cerebellar granule neurons, sequence (O88498 whole entry): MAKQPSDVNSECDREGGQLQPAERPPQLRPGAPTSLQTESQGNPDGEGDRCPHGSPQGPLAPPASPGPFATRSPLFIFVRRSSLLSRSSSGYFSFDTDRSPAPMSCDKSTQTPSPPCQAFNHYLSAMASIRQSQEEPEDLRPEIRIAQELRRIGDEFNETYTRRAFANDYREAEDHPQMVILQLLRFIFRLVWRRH

Row | binding result [2] | Molecule | BIMEL protein levels in granule neurons after Pin1 RNAi lentivirus (immunoblot) [1]
1 |  | Endogenous Pin1 in cerebellar granule neurons | 46±1.5% reduction
2 | no binding | FLAG-tagged JIP3 fragment 144-241 (other, UniProt Q9ESN9 144-241, looked up, Expressed in 293T cells; not shown: 3xFLAG tag of the 3xFLAG CMV-7.1 vector) ADQISRLEERESEMKKEYNALHQRHTEMIQTYVEHIERSKMQQVGGSGQTESSLPGRSRKERPTSLNVFPLADGMVRAQMGGKLVPAGDHWHLSDLGQ | 
